Reference: patent publication US20160137746A1, “METHODS FOR TREATING HIGH CARDIOVASCULAR RISK PATIENTS WITH HYPERCHOLESTEROLEMIA” (Sanofi Biotechnology, priority 2014, published 2016)

How the values were obtained:
[1] = test system: high cardiovascular risk patients with hypercholesterolemia; assay: ODYSSEY COMBO I: antibodies to alirocumab; assay type: in vivo, human
Excerpt: In seven of these patients, the antibodies were transient and resolved despite continued alirocumab treatment.

[2] = test system: high cardiovascular risk patients with hypercholesterolemia; details: in vivo
Procedure: Safety parameters (adverse events [including adjudicated cardiovascular events], laboratory data, vital signs, and ECG) were assessed throughout the study.
Safety endpoints assessed in this trial were: cardiovascular events; allergic events; local tolerability at injection site; other adverse events (including hemolytic anemia); laboratory tests: urinalysis, hematology (red blood cell count, red blood cell distribution width (RDW), reticulocyte count, hemoglobin, hematocrit, platelets, white blood cell count with differential blood count), standard chemistry (sodium, potassium, chloride, bicarbonate, calcium, phosphorous, urea nitrogen, creatinine, uric acid, total protein, albumin, LDH, γ Glutamyl Transferase [γGT]), Vitamin E (alpha tocopherol) and other Fat Soluble Vitamins, cortisol (and reflexive ACTH levels, as needed, followed by ACTH stimulation test, as needed), Gonadal Hormone Assessments, Hepatitis C antibody, liver panel (ALT, AST, ALP, and total bilirubin), and CPK; vital signs including heart rate and blood pressure; and 12-lead ECG.
(§1) The safety population included all randomized patients who received at least one dose or part of a dose of the double-blind IMP.
Safety analyses were descriptive, performed on the safety population according to treatment actually received. The safety analysis focused on the TEAE period defined as the time from the first dose of double-blind injection up to 70 days after the last double-blind injection. TEAE which developed, worsened or became serious or PCSA occurring after the patient's first injection in the open-label extension study (LTS13643) were not considered in the TEAE period. TEAE period was truncated at the common study cut-off date.

[3] = test system: high cardiovascular risk patients with hypercholesterolemia; details: in vivo; remark: listed apart in the source
Procedure: Safety assessments during both studies were as follows. Safety was assessed through adverse event (AE) reporting (including adjudicated cardiovascular events), laboratory analyses, and vital signs measurement. Since the LDL-C-lowering effects of PCSK9 inhibition on top of a statin are unknown, a number of AEs were defined as being of special interest and were monitored, including alanine aminotransferase abnormalities, allergic events, hemolytic anemia, pregnancy, overdose with study drug, neurologic events, ophthalmic events, and local injection site reactions.
Safety Analyses were as follows. AEs (including adjudicated cardiovascular events), laboratory parameters, and vital signs were reported descriptively, based on the safety population (all randomized patients who received at least 1 dose or partial dose of study treatment). The safety analysis focused on the treatment-emergent AE period defined as the time from the first double-blind dose to the last double-blind dose of the investigational product +70 days (10 weeks).
as §1
Safety analyses were descriptive, performed on the safety population according to treatment actually received. For analysis of TEAE and PCSA, the safety analysis focused on the TEAE period defined as the time from the first dose of double-blind IMP administration (capsule or injection, whichever comes first) up to 70 days after the last double-blind injection.

Q: Which “Effect of anti-alirocumab antibodies on safety and efficacy” value ([1]; in vivo) does the source give for “Alirocumab: human anti-PCSK9 antibody; HCVR SEQ ID NO:1, LCVR SEQ ID NO:6; CDRs SEQ ID NOs 2/3/4/7/8/10” here?
A: no observed effect on safety and efficacy

Q: And the “Median time to detection of antibodies to alirocumab” value ([1]; in vivo)?
A: 12 weeks

Q: What about the “Antibodies to alirocumab detected at baseline” value ([1]; patients subsequently randomized to alirocumab (3/197)) of the same substance?
A: 1.5%

Q: What about the Anti-alirocumab antibody titer ([1]; treatment-emergent positive patients) of the same substance?
A: ≤ 240

Q: And the “TEAE Lower respiratory tract infection (LRTI), % of patients” value [2]?
A: 3.0% (46)

Q: What about the “TEAE Upper respiratory tract infection (URTI), % of patients” value [2] of the same substance?
A: 7.0% (109)

Q: What about the “TEAE Urinary tract infection, % of patients” value [2] of the same substance?
A: 5.2% (81)

Q: And the “TEAEs by System-Organ-Class: Infections and infestations, % of patients” value [2]?
A: 45.5% (705)

Q: What about the “TEAE preferred term: Upper respiratory tract infection” value [3] of the same substance?
A: 31 (6.5)

Q: What about the “TEAE system organ class: Infections and infestations” value [3] of the same substance?
A: 130 (27.1)
